The target of assay [1] is T1, mouse serum albumin (mouse, UniProt P07724 25-608).
T1 construct: Biotinylated (about 2 biotins per molecule) in the capture ELISA; unlabelled on the CM5 chip; also called MSA; biotinylated MSA
In words: capture ELISA: dAb on protein A, biotinylated MSA, streptavidin HRP. Background: An ELISA detects its analyte on a solid surface through an enzyme-linked reagent.

The target of assay [2] is EGFR (as used for the KD column of Table 10) (UniProt P00533 25-645, limits assumed). Nature of the assay: method not described.
The target of assay [3] is T2, EGFR expressed on A431 cells (UniProt P00533 25-1210, limits assumed). In words: cell-based or functional assay.
Assay [4] addresses T2, EGFR expressed on A431 cells. In words: EGFR receptor binding assay: inhibition of biotinylated EGF binding to A431 cells; average.
The target is the same in assay [5]. Nature of the assay: EGFR receptor binding assay: inhibition of biotinylated EGF binding to A431 cells; lowest value obtained.
The target is the same in assay [6]. Nature of the assay: EGFR receptor binding assay: inhibition of biotinylated EGF binding to A431 cells; highest value obtained.
Assay [7] has as its target T3, human TNFR1 (human p55 TNF receptor) (human, UniProt P19438 30-211, limits assumed).
T3 construct: also called TNF receptor 1; TNFα receptor
T3 sequence: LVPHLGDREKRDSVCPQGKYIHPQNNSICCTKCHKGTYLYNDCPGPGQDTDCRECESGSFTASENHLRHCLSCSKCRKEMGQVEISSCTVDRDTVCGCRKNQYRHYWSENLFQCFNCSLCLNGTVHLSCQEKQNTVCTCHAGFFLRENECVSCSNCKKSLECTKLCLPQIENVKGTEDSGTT
In words: selection from dAb libraries.

T1 sequence (P07724 25-608 limits assumed): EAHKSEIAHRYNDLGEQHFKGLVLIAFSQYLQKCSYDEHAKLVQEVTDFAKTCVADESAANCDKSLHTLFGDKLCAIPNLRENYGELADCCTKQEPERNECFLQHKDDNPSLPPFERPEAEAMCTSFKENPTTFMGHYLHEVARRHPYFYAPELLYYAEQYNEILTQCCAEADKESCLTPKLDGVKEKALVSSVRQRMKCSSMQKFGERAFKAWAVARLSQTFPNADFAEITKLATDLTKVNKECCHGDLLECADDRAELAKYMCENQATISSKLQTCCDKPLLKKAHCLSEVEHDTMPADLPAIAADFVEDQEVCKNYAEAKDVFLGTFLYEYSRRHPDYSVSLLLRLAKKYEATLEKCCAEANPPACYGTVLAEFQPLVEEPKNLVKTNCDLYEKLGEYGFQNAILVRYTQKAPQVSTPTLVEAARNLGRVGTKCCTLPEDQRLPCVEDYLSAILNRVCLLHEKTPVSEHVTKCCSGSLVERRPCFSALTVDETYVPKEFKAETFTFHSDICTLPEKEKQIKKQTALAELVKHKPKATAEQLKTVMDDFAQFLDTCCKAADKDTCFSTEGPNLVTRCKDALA

B1: anti-serum albumin VH dAb, clones 8, 10 (other)
VH: EVQLLESGGGLVQPGGSLRLSCAASGFTFWVYQMDWVRQAPGKGLEWVSSISAFGAKTLYADSVKGRFTISRDNSKNTLYLQMNSLRAEDTAVYYCAKLSGKFDYWGQGTLVTVSS
notes: dAb
With B1, the binding result in assay [1] is “binds”.

B2: DOM16-39-109 (other)
chain: DIQMTQSPTSLSASVGDRVTITCRASQWIGNLLDWYQQKPGEAPKLLIYYASFLQSGVPSRFSGGGFGTDFTLTISSLQPEDFATYYCQQANPAPLTFGQGTKVEIKR
notes: anti-EGFR dAb
A word on the Kd: it is the equilibrium constant for the complex coming apart. Read a high Kd as lower affinity. As usually defined, the IC50 is the concentration needed to halve the response being measured. A lower IC50 goes with greater potency. On to B2, for which the Kd in assay [2] worked out at 1.01 nM. For the same molecule, in assay [3], the “KINASE ASSAY IC50, average” value turned out to be 8.69 nM; the “KINASE ASSAY IC50, highest value” was found to be 11.1 nM; the “KINASE ASSAY IC50, lowest value” was determined as 6.82 nM. The IC50 in assay [4] was found to be 1.05 nM. Moreover, the IC50 in assay [5] came out at 0.746 nM. This molecule gave an IC50 in assay [6] of 1.47 nM.

B3: TAR2h-5 VH dAb (other)
VH: EVQLLESGGGLVQPGGSLRLSCAASGFTFDLYNMFWVRQAPGKGLEWVSFISQTGRLTWYADSVKGRFTISRDNSKNTLYLQMNSLRAEDTAVYYCAKTLEDFDYWGQGTLVTVSS
notes: TAR2-5 and TAR2h-5 are used for the same dAb; also called TAR2-5
For B3, the binding result in assay [7] is given as “binds”.

B4: anti-serum albumin VH dAb, clone 36 (other)
VH: EVQLLESGGGLVQPGGSLRLSCAASGFTFWSYQMTWVRQAPGKGLEWVSSISSFGSSTLYADSVKGRFTISRDNSKNTLYLQMNSLRAEDTAVYYCAKGRDHNYSLFDYWGQGTLVTVSS
notes: ranges to be checked
On to B4, for which the binding result in assay [1] is “binds”.

The record behind these values is patent US20080241166A1 (DOMANTIS, published 2008).
